“Also recorded” adds a separate entry of the source.
Experiments:
Format in all cases: cell-based, human
bcl-2 = bcl-2 expression in ADRP MCF-7 versus control MCF-7 cells; details: ADRP overexpressing versus empty vector control cells, FIG. 5
Source text: This is shown by down-regulation of bcl-2 in ADRP MCF-7 cells when compared to control MCF-7 cells. […] In other words, ADRP overexpression sensitizes the cells to apoptotic stimuli.

[1] = test system: beta casein expression in MCF-7 cells; test: beta casein expression by RT-PCR as marker of breast cancer cell differentiation; details: versus control cells with no detectable level, FIG. 3A
Source text: We then explored whether growth inhibition of cells overexpressing ADRP was accompanied by stimulated differentiation of the cells. In order to investigate this possibility, we measured the expression of markers of differentiation such as beta casein in the ADRP expressing cells when compared to EV cells. Beta casein is routinely used as a marker of mammary epithelial cell differentiation. We show by RT-PCR that the ADRP overexpressing cells express high level of casein mRNA. In contrast, the control cells had no detectable level of the gene product (see FIG. 3A). In FIG. 3A, GAPDH (Glyceraldehyde-3-phosphate dehydrogenase) loading was used as an internal control for equal sample mRNA expression. […] Measurement of Beta casein expression as marker of breast cancer cell differentiation was by RT-PCR as described above.

[2] = test system: ADRP overexpressing cells (MCF7-C4); test: proliferation assay, ADRP overexpressing MCF-7 cells; details: serum containing medium, with or without hormones and growth factors, FIGS. 1 and 2
Experimental: The vector used to over-express ADRP in MCF-7 cells is the ADRP-pcDNA3 vector described in Gao and Serrero, 1999. The G418 resistance gene was used as selectable marker. MCF-7 cells were transfected with the ADRP-pcDNA3 plasmid, using the lipofectamine method. Specifically, MCF-7 cells (WT) were plated onto 60-mm dish at the concentration of 2×10^5 cell per plate in 5% fetal bovine serum (FBS) in DMEM/F12 (1:1 mixture of Dulbecco's modified Eagle's medium and Ham' nutrient F12 medium) overnight before transfection. Cells were washed once with serum-free DMEM/F12 (without antibiotic). The lipofectamine method was used for the transfection. Specifically, 2 μg mouse ADRP pcDNA3 construct was used. Transfection was carried on according to manufacturer's recommendations, with 15 μl of lipofectamine and 5 hours of incubation. After transfection, the medium was replaced with 5% FBS DMEM/F12 and the cells were incubated overnight. G418 at the concentration of 800 μg/ml was added the day after for selection. Cells were selected with this medium for 3 weeks. Six clones were isolated and subjected to RT-PCR to determine the existence of the transfection construct. […] Cell numbers were counted by hemacytometer every two days. […]

MCF-7 cells [3] = test: Oil Red O staining of lipid droplets; details: ADRP overexpressing versus EV MCF-7 cells, FIG. 4B
Experimental: This is also supported by the fact that ADRP overexpressing cells accumulated lipid droplets at a higher level (higher number of droplets per cells and higher number of cells having droplets than the empty vector control MCF-7 cells as shown in FIG. 4A and FIG. 4B. A 5-fold increase in lipid droplets accumulation was observed (FIG. 4B). Specifically, cells were plated at the concentration of 2×10^5 per 35-mm dish in 5% FBS DMEM/F12. After 48 h of incubation, cells were washed once with PBS and fixed in 4% formalin for 30 min. Oil Red O working solution was added to cover all the cells, and the cells were incubated at 37° C. for 1 h. The Working Solution was prepared by mixing 6 ml 0.5% Oil Red O in isopropanol with 4 ml H2O, and centrifuging at 4000 g for 10 min to remove sediments. The plates were washed with tap water twice. Cells were counterstained by Hematoxylin QS (Vector Laboratories, California) for 45 sec, and washed with tap water.

MCF-7 cells [4] = test: FACS analysis of apoptosis and G1 phase; details: ADRP-MCF-7 versus EV-MCF-7 cells
Source text: Increased of percentage of cells in apoptosis and in G1 phase is shown by FACS analysis of ADRP-MCF-7 cells and EV-MCF-7 cells.

B1: ADRP: 50-kDa adipose differentiation related protein, over-expressed in MCF-7 cells by transfection with mouse ADRP pcDNA3 construct (protein, UniProt P43883 2-425, looked up)
Perilipin-2: AAAVVDPQQSVVMRVANLPLVSSTYDLVSSAYVSTKDQYPYLRSVCEMAEKGVKTVTSAAMTSALPIIQKLEPQIAVANTYACKGLDRMEERLPILNQPTSEIVASARGAVTGAKDVVTTTMAGAKDSVASTVSGVVDKTKGAVTGSVERTKSVVNGSINTVLGMVQFMNSGVDNAITKSELLVDQYFPLTQEELEMEAKKVEGFDMVQKPSNYERLESLSTKLCSRAYHQALSRVKEAKQKSQETISQLHSTVHLIEFARKNMHSANQKIQGAQDKLYVSWVEWKRSIGYDDTDESHCVEHIESRTLAIARNLTQQLQTTCQTVLVNAQGLPQNIQDQAKHLGVMAGDIYSVFRNAASFKEVSDGVLTSSKGQLQKMKESLDEVMDYFVNNTPLNWLVGPFYPQSTEVNKASLKVQQSEVKAQ
modifications: expressed from pcDNA3
notes: 50-kDa adipose differentiation related protein, over-expressed in MCF-7 cells by transfection with mouse ADRP pcDNA3 construct
Bcl-2 expression (bcl-2): dramatically decreased; also recorded: much lower level | casein mRNA expression in ADRP overexpressing cells [1]: stimulation of casein expression; also recorded: high level | growth of cells over-expressing ADRP [2]: grow very slowly | increase in lipid droplets accumulation (MCF-7 cells [3]): ~5 fold | percentage of cells in apoptosis and in G1 phase (MCF-7 cells [4]): Increased

Reference: patent US20060210568A1, “Methods and compositions for cancer treatment” (priority 2003, published 2006)
